{"source": "patent US20110212843", "about": "“STRUCTURE BASED AND COMBINATORIALLY SELECTED OLIGONUCLEOSIDE PHOSPHOROTHIOATE AND PHOSPHORODITHIOATE APTAMER TARGETING AP-1 TRANSCRIPTION FACTORS” (BOARD OF REGENTS, THE UNIVERSITY OF TEXAS SYSTEM, published 2011)", "binders": {"B1": {"name": "XBY-6 (dsDNA)", "DNA 1": "CCAGGAGATTCCAC", "DNA 2": "GTGGAATCTCCTGG", "modifications": "phosphorodithioate 3' of T9 and T10 of top strand and 3' of each T printed as S2T in bottom strand (4), 6 in total"}, "B2": {"name": "Split-synthesis thioaptamer SEQ 6 (dsDNA)", "DNA 1": "TGTGCAGGGACTGATGACGGT", "DNA 2": "ACCGTCATCAGTCCCTGCACA", "modifications": "PS 3' of lower-case bases in tGTGcAGGGACTgAtGaCGGt, one strand"}, "B3": {"name": "Split-synthesis thioaptamer SEQ 7 (dsDNA)", "DNA 1": "CTGTGCATCGAAGTTTGCATTT", "DNA 2": "AAATGCAAACTTCGATGCACAG", "modifications": "PS 3' of lower-case bases in CtGTGCatCGAaGTTtGCAtTt, one strand"}, "B4": {"name": "Split-synthesis thioaptamer SEQ 8 (dsDNA)", "DNA 1": "ATGCACATCTCAGGATGACGGT", "DNA 2": "ACCGTCATCCTGAGATGTGCAT", "modifications": "PS 3' of lower-case bases in AtGcAcAtCtCaGgAtGaCGGt, one strand"}, "B5": {"name": "Split-synthesis thioaptamer SEQ 9 (dsDNA)", "DNA 1": "AGTTGCAGGTCAGGACCCATTT", "DNA 2": "AAATGGGTCCTGACCTGCAACT", "modifications": "PS 3' of lower-case bases in AGTTGcAGGtCaGgACCCAtTt, one strand"}, "B6": {"name": "Resynthesised bead thioaptamer (dsDNA)", "DNA 1": "CTGTGAGTCGACTGATGACGGT", "DNA 2": "ACCGTCATCAGTCGACTCACAG", "modifications": "PS 3' of lower-case bases, one strand"}, "B7": {"name": "XBY-S2 (dsDNA)", "DNA 1": "CCAGTGACTCAGTG", "DNA 2": "CACTGAGTCACTGG", "modifications": "phosphorodithioates, 6 in total, 3' of T at S2 positions as printed (3 per strand)"}}, "key": {"[1]": {"biological_target": "NF-kB p65 (Rel A) homodimer (UniProt Q04206 Q04206:1-551)", "sequence (Q04206 whole entry, one chain of several)": "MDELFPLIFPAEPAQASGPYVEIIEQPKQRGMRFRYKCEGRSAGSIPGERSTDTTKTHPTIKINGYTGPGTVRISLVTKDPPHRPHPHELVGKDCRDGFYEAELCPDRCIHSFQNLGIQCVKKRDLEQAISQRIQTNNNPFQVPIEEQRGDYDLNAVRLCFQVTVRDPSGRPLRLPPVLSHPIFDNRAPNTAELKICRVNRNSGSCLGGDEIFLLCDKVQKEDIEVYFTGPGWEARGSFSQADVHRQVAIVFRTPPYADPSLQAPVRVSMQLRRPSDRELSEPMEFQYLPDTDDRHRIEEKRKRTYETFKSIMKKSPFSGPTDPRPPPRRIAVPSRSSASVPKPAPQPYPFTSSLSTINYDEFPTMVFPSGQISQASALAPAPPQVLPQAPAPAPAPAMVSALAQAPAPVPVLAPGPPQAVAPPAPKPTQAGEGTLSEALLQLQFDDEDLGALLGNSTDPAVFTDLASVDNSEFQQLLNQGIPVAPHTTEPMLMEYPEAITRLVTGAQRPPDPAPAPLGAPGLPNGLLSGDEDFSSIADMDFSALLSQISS"}, "NF-kB p50 homodimer [2]": {"biological_target": "T1, NF-kB p50 homodimer (UniProt P19838 P19838:1-433)", "T1 sequence (P19838 1-433, one chain of several)": "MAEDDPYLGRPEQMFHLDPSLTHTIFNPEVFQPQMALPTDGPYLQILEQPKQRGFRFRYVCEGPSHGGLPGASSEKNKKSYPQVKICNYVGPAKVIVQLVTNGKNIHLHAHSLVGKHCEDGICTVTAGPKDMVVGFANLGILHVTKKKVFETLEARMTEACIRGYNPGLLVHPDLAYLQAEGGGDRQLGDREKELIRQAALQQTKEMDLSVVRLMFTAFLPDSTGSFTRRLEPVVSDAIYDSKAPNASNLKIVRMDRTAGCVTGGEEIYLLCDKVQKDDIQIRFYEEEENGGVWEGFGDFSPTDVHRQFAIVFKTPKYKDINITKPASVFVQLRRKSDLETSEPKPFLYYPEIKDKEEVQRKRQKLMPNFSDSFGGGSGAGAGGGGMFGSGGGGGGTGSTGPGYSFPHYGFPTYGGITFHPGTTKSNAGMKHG", "test": "sub-nM binding affinity", "settings": "chain copies: 2 stated"}, "NF-kB p50 homodimer [3]": {"biological_target": "T1, NF-kB p50 homodimer", "test": "bead fluorescence, Alexa Fluor 488-p50; PBS 0.1% Tween 20 wash", "settings": "chain copies: 2 stated", "excerpt": "(§1) The dsDNA thioaptamer library beads were screened for the ability to bind the NF-κB p50/p50 dimer labeled with the Alexa Fluor 488 dye (Molecular Probes). After initial binding of protein, the beads were thoroughly washed with PBS with 0.1% Tween 20 to minimize nonspecific binding. Typically, a few positive beads were intensely stained when viewed by fluorescence, while the majority of the beads remained unstained as (data not shown). With the aid of a micropipette coupled to a micromanipulator, the intensely stained beads were retrieved. Only highly positive beads from several thousand were found using this method. As described below, multicolor flow cytometry and cell/bead sorting was used to automate the selection process to select the tightest binding thioaptamer-protein complexes.\nSequencing may also be obtained directly from the bead. Each individually selected bead was washed thoroughly with 8 M urea (pH 7.2) to remove the protein and was directly used for the “one-bead one-PCR” amplification using the 5′ and 3′ end primers. The PCR product was cloned using the TA Cloning procedure (Invitrogen) and sequenced on an ABI Prism 310 Genetic Analyzer (Applied Biosystems). […] The fluorescence intensity of all of the beads viewed under the fluorescence microscope was qualitatively similar to the intensity of the selected bead containing this sequence within the combinatorial library. […]"}, "NF-kB p50 homodimer [4]": {"biological_target": "T1, NF-kB p50 homodimer", "test": "bead fluorescence, Alexa Fluor 488-p50", "settings": "chain copies: 2 stated", "excerpt": "as §1\n(§2) Sequencing may also be obtained directly from the bead. Each individually selected bead was washed thoroughly with 8 M urea (pH 7.2) to remove the protein and was directly used for the “one-bead one-PCR” amplification using the 5′ and 3′ end primers. The PCR product was cloned using the TA Cloning procedure (Invitrogen) and sequenced on an ABI Prism 310 Genetic Analyzer (Applied Biosystems). The four thioaptamers listed in Table 3 were obtained from the library. […] The fluorescence intensity of all of the beads viewed under the fluorescence microscope was qualitatively similar to the intensity of the selected bead containing this sequence within the combinatorial library. […] Thus, the split synthesis has been used to create a “one-bead-one sequence” ODN and that PCR can be used to identify an S-ODN bound to a bead (Yang et al., 2002; Gorenstein et al, US & Foreign Patents pending, 1999 a, b, 2001, 2002)."}, "NF-kB p50 homodimer [5]": {"biological_target": "T1, NF-kB p50 homodimer", "test": "resynthesised on bead; text labels it SEQ ID NO 7 but printed sequence differs", "settings": "chain copies: 2 stated", "excerpt": "as §2"}, "AP-1 c-Jun": {"biological_target": "AP-1 c-Jun (Homo sapiens, UniProt P05412 P05412:1-331)", "sequence (P05412 whole entry, one chain of several)": "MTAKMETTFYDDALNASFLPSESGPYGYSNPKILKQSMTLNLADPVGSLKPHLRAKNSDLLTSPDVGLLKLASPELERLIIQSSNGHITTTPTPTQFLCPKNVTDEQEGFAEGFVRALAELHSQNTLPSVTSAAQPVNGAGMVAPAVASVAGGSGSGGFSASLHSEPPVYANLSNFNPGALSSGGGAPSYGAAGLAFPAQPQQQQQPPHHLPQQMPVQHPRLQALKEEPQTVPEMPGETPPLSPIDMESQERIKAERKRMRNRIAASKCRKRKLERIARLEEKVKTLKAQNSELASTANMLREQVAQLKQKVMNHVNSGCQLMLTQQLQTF", "test": "EMSA; specific binding to recombinant human c-Jun dimers", "settings": "chain copies: 2 stated"}}}
{"binder": "B1", "values": [{"measurement": "Kd", "setting": "[1]", "value": 1.4, "unit": "nM"}, {"measurement": "Kd", "setting": "NF-kB p50 homodimer [2]", "value": "< 1", "unit": "nM"}]}
{"binder": "B2", "values": [{"measurement": "binding result", "setting": "NF-kB p50 homodimer [3]", "value": "binds"}]}
{"binder": "B3", "values": [{"measurement": "binding result", "setting": "NF-kB p50 homodimer [4]", "value": "binds"}]}
{"binder": "B4", "values": [{"measurement": "binding result", "setting": "NF-kB p50 homodimer [4]", "value": "binds"}]}
{"binder": "B5", "values": [{"measurement": "binding result", "setting": "NF-kB p50 homodimer [4]", "value": "binds"}]}
{"binder": "B6", "values": [{"measurement": "binding result", "setting": "NF-kB p50 homodimer [5]", "value": "binds"}]}
{"binder": "B7", "values": [{"measurement": "binding result", "setting": "AP-1 c-Jun", "value": "binds"}]}
